Laboratory results: patent US10106577B2, “Agonists of neurotrophin receptors and their use as medicaments” (BIONURE FARMA, S.L., priority 2010, dated 2018)

System: NSC-34 cells
Experiment: In vitro model of ALS, serum deprivation of motoneuron-like cells (MTT)
Assay type: cell-based, mouse
Conditions: G-CSF 2 μg/ml; serum deprivation 48 h
Description: Mouse motoneuron-like cells NCS-34 were cultured in DMEM (Gibco) supplemented with 10% heat inactivated FBS and 1% penicillin/streptomycin. The cell culture was maintained in a humidified atmosphere of 95% air and CO2 at 37° C.
The nutritional deprivation stress in motorneurons was conducted as described previously in Masahito T. et al., J. Neuropathol. Exp. Neurol. 65(8):816-825 (2006). To assess the effect of trophic stress condition on ALS, the presence of apoptosis was investigated using serum deprivation. NSC-34 cells were seeded in 24-well poly-lysinated plates at 30,000 cells/well and preincubated for 24 h in DMEM plus 10% FBS with various doses of G79, G80, and G81 (20 ng/ml, 100 ng/ml, 2 μg/ml, 20 μg/ml, 50 μg/ml), and G-CSF (2 μg/ml) or BDNF (20 ng/ml) which both were used as positive controls (Masahito T. et al., ibid; Elliot J. L., Neurobiology of Disease 6:310-320 (1999)). Then, the medium was removed and replaced with fresh DMEM without FBS. After 48 h, cell viability was assayed by MTT assay, as described previously.

B1: G-CSF: positive control (2 μg/ml) in the in vitro model of ALS (protein, UniProt P09919 31-207, looked up)
Granulocyte …: TPLGPASSLPQSFLLKCLEQVRKIQGDGAALQEKLVSECATYKLCHPEELVLLGHSLGIPWAPLSSCPSQALQLAGCLSQLHSGLFLYQGLLQALEGISPELGPTLDTLQLDVADFATTIWQQMEELGMAPALQPTQGAMPAFASAFQRRAGGVLVASHLQSFLEVSYRVLRHLAQP
cell viability, percentage relative to the control without stress: 76.50±8.3%
